The test concerns the target actin (UniProt P68135). Nature of the test: ITC; Tmod or Lmod construct in the syringe titrated into LatB-actin in the cell (LatB:actin 1.2:1); 20 mM HEPES pH 7.5, 100 mM NaCl, 0.2 mM ATP, 1 mM DTT; temperature and concentrations listed in the figures.

Chain of Tmod1_(ABS1) (P28289 whole entry, the tested form may be a part): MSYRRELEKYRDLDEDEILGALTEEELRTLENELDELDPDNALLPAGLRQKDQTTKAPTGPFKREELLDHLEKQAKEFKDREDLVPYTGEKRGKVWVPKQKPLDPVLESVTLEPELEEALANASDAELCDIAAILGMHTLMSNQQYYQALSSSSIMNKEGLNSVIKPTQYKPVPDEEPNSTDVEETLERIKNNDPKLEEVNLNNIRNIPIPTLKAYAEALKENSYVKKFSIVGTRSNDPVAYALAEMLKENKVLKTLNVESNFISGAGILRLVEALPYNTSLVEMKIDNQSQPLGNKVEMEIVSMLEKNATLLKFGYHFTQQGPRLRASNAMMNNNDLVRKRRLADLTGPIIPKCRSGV

The stoichiometry N is the number of molecules, sites or subunits per partner or assembly. Turning to “Tmod1_(ABS1) (from UniProt P28289-1 1-359) (domain or fragment)”, the stoichiometry N amounted to 1.

These data come from PMC4571291.
